EC50[nM] of MAGE-A3 peptide for activator C563 in Jurkat NFAT-luciferase cells co-expressing this inhibitor; T2 cells with 50 uM NY-ESO-1 peptide data for one substance are collected here from US20230029341A1.

This experiment concerns the target HLA-A*02:01/NY-ESO-1 (modified, …) peptide-MHC on peptide-loaded T2 cells (human). In words: cell-based or functional assay.

The substance “C2057 + C2058 (TCR 1G4:α95LY alpha ECD and beta ECD, each fused to LILRB1 TM and ICD)” showed an EC50[nM] of MAGE-A3 peptide for activator C563 in Jurkat NFAT-luciferase cells co-expressing this inhibitor; T2 cells with 50 uM NY-ESO-1 peptide above 10000 nM.
